Biological target: mouse mammary tumor virus (MMTV) integrase (IN) (mouse mammary tumor virus (MMTV))
Assay: cryo-EM structure; octameric MMTV STC intasome: IN assembled on branched DNA, purified on Superdex 200 in 25 mM Tris-HCl pH 7.4, 200 mM NaCl, 2 mM DTT, 25 uM ZnCl2, 10 mM CaCl2; C2 symmetry, 3.5 Å global resolution

## mouse mammary tumor virus (MMTV) integrase (IN) (enzyme)
  stoichiometry N: 8

Source: paper PMC9410886
